Experimental data reported in publication PMC11446282.

B1: SIK2_HUMAN (protein, UniProt Q9H0K1 1-926, looked up)
Serine/threonine-protein …: MVMADGPRHLQRGPVRVGFYDIEGTLGKGNFAVVKLGRHRITKTEVAIKIIDKSQLDAVNLEKIYREVQIMKMLDHPHIIKLYQVMETKSMLYLVTEYAKNGEIFDYLANHGRLNESEARRKFWQILSAVDYCHGRKIVHRDLKAENLLLDNNMNIKIADFGFGNFFKSGELLATWCGSPPYAAPEVFEGQQYEGPQLDIWSMGVVLYVLVCGALPFDGPTLPILRQRVLEGRFRIPYFMSEDCEHLIRRMLVLDPSKRLTIAQIKEHKWMLIEVPVQRPVLYPQEQENEPSIGEFNEQVLRLMHSLGIDQQKTIESLQNKSYNHFAAIYFLLVERLKSHRSSFPVEQRLDGRQRRPSTIAEQTVAKAQTVGLPVTMHSPNMRLLRSALLPQASNVEAFSFPASGCQAEAAFMEEECVDTPKVNGCLLDPVPPVLVRKGCQSLPSNMMETSIDEGLETEGEAEEDPAHAFEAFQSTRSGQRRHTLSEVTNQLVVMPGAGKIFSMNDSPSLDSVDSEYDMGSVQRDLNFLEDNPSLKDIMLANQPSPRMTSPFISLRPTNPAMQALSSQKREVHNRSPVSFREGRRASDTSLTQGIVAFRQHLQNLARTKGILELNKVQLLYEQIGPEADPNLAPAAPQLQDLASSCPQEEVSQQQESVSTLPASVHPQLSPRQSLETQYLQHRLQKPSLLSKAQNTCQLYCKEPPRSLEQQLQEHRLQQKRLFLQKQSQLQAYFNQMQIAESSYPQPSQQLPLPRQETPPPSQQAPPFSLTQPLSPVLEPSSEQMQYSPFLSQYQEMQLQPLPSTSGPRAAPPLPTQLQQQQPPPPPPPPPPRQPGAAPAPLQFSYQTCELPSAASPAPDYPTPCQYPVDGAQQSDLTGPDCPRSPGLQEAPSSYDPLALSELPGLFDCEMLDAVDPQHNGYVLVN
B2: RBM7_HUMAN (protein, UniProt Q9Y580 2-266, looked up)
RNA-binding protein 7: GAAAAEADRTLFVGNLETKVTEELLFELFHQAGPVIKVKIPKDKDGKPKQFAFVNFKHEVSVPYAMNLLNGIKLYGRPIKIQFRSGSSHAPQDVSLSYPQHHVGNSSPTSTSPSRYERTMDNMTSSAQIIQRSFSSPENFQRQAVMNSALRQMSYGGKFGSSPLDQSGFSPSVQSHSHSFNQSSSSQWRQGTPSSQRKVRMNSYPYLADRHYSREQRYTDHGSDHHYRGKRDDFFYEDRNHDDWSHDYDNRRDSSRDGKWRSSRH
B3: AMOL2_HUMAN (protein, UniProt Q9Y2J4 1-779, looked up)
Angiomotin-like protein 2: MRTLEDSSGTVLHRLIQEQLRYGNLTETRTLLAIQQQALRGGAGTGGTGSPQASLEILAPEDSQVLQQATRQEPQGQEHQGGENHLAENTLYRLCPQPSKGEELPTYEEAKAHSQYYAAQQAGTRPHAGDRDPRGAPGGSRRQDEALRELRHGHVRSLSERLLQLSLERNGARAPSHMSSSHSFPQLARNQQGPPLRGPPAEGPESRGPPPQYPHVVLAHETTTAVTDPRYRARGSPHFQHAEVRILQAQVPPVFLQQQQQYQYLQQSQEHPPPPHPAALGHGPLSSLSPPAVEGPVSAQASSATSGSAHLAQMEAVLRENARLQRDNERLQRELESSAEKAGRIEKLESEIQRLSEAHESLTRASSKREALEKTMRNKMDSEMRRLQDFNRDLRERLESANRRLASKTQEAQAGSQDMVAKLLAQSYEQQQEQEKLEREMALLRGAIEDQRRRAELLEQALGNAQGRAARAEEELRKKQAYVEKVERLQQALGQLQAACEKREQLELRLRTRLEQELKALRAQQRQAGAPGGSSGSGGSPELSALRLSEQLREKEEQILALEADMTKWEQKYLEERAMRQFAMDAAATAAAQRDTTLIRHSPQPSPSSSFNEGLLTGGHRHQEMESRLKVLHAQILEKDAVIKVLQQRSRRDPGKAIQGSLRPAKSVPSVFAAAAAGTQGWQGLSSSERQTADAPARLTTDRAPTEEPVVTAPPAAHAKHGSRDGSTQTEGPPDSTSTCLPPEPDSLLGCSSSQRAASLDSVATSRVQDLSDMVEILI
B4: TBCD4_HUMAN (protein, UniProt O60343 1-1298, looked up)
TBC1 domain family member 4: MEPPSCIQDEPFPHPLEPEPGVSAQPGPGKPSDKRFRLWYVGGSCLDHRTTLPMLPWLMAEIRRRSQKPEAGGCGAPAAREVILVLSAPFLRCVPAPGAGASGGTSPSATQPNPAVFIFEHKAQHISRFIHNSHDLTYFAYLIKAQPDDPESQMACHVFRATDPSQVPDVISSIRQLSKAAMKEDAKPSKDNEDAFYNSQKFEVLYCGKVTVTHKKAPSSLIDDCMEKFSLHEQQRLKIQGEQRGPDPGEDLADLEVVVPGSPGDCLPEEADGTDTHLGLPAGASQPALTSSRVCFPERILEDSGFDEQQEFRSRCSSVTGVQRRVHEGSQKSQPRRRHASAPSHVQPSDSEKNRTMLFQVGRFEINLISPDTKSVVLEKNFKDISSCSQGIKHVDHFGFICRESPEPGLSQYICYVFQCASESLVDEVMLTLKQAFSTAAALQSAKTQIKLCEACPMHSLHKLCERIEGLYPPRAKLVIQRHLSSLTDNEQADIFERVQKMKPVSDQEENELVILHLRQLCEAKQKTHVHIGEGPSTISNSTIPENATSSGRFKLDILKNKAKRSLTSSLENIFSRGANRMRGRLGSVDSFERSNSLASEKDYSPGDSPPGTPPASPPSSAWQTFPEEDSDSPQFRRRAHTFSHPPSSTKRKLNLQDGRAQGVRSPLLRQSSSEQCSNLSSVRRMYKESNSSSSLPSLHTSFSAPSFTAPSFLKSFYQNSGRLSPQYENEIRQDTASESSDGEGRKRTSSTCSNESLSVGGTSVTPRRISWRQRIFLRVASPMNKSPSAMQQQDGLDRNELLPLSPLSPTMEEEPLVVFLSGEDDPEKIEERKKSKELRSLWRKAIHQQILLLRMEKENQKLEASRDELQSRKVKLDYEEVGACQKEVLITWDKKLLNCRAKIRCDMEDIHTLLKEGVPKSRRGEIWQFLALQYRLRHRLPNKQQPPDISYKELLKQLTAQQHAILVDLGRTFPTHPYFSVQLGPGQLSLFNLLKAYSLLDKEVGYCQGISFVAGVLLLHMSEEQAFEMLKFLMYDLGFRKQYRPDMMSLQIQMYQLSRLLHDYHRDLYNHLEENEISPSLYAAPWFLTLFASQFSLGFVARVFDIIFLQGTEVIFKVALSLLSSQETLIMECESFENIVEFLKNTLPDMNTSEMEKIITQVFEMDISKQLHAYEVEYHVLQDELQESSYSCEDSETLEKLERANSQLKRQNMDLLEKLQVAHTKIQALESNLENLLTRETKMKSLIRTLEQEKMAYQKTVEQLRKLLPADALVNCDLLLRDLNCNPNNKAKIGNKP
B5: ACOT8_HUMAN (protein, UniProt O14734 1-319, looked up)
Acyl-coenzyme A thioesterase 8: MSSPQAPEDGQGCGDRGDPPGDLRSVLVTTVLNLEPLDEDLFRGRHYWVPAKRLFGGQIVGQALVAAAKSVSEDVHVHSLHCYFVRAGDPKLPVLYQVERTRTGSSFSVRSVKAVQHGKPIFICQASFQQAQPSPMQHQFSMPTVPPPEELLDCETLIDQYLRDPNLQKRYPLALNRIAAQEVPIEIKPVNPSPLSQLQRMEPKQMFWVRARGYIGEGDMKMHCCVAAYISDYAFLGTALLPHQWQHKVHFMVSLDHSMWFHAPFRADHWMLYECESPWAGGSRGLVHGRLWRQDGVLAVTCAQEGVIRVKPQVSESKL
B6: PPME1_HUMAN (protein, UniProt Q9Y570 2-386, looked up)
Protein phosphatase …: SALEKSMHLGRLPSRPPLPGSGGSQSGAKMRMGPGRKRDFSPVPWSQYFESMEDVEVENETGKDTFRVYKSGSEGPVLLLLHGGGHSALSWAVFTAAIISRVQCRIVALDLRSHGETKVKNPEDLSAETMAKDVGNVVEAMYGDLPPPIMLIGHSMGGAIAVHTASSNLVPSLLGLCMIDVVEGTAMDALNSMQNFLRGRPKTFKSLENAIEWSVKSGQIRNLESARVSMVGQVKQCEGITSPEGSKSIVEGIIEEEEEDEEGSESISKRKKEDDMETKKDHPYTWRIELAKTEKYWDGWFRGLSNLFLSCPIPKLLLLAGVDRLDKDLTIGQMQGKFQMQVLPQCGHAVHEDAPDKVAEAVATFLIRHRFAEPIGGFQCVFPGC

Tested on: B55α interactors
Assay: MS analysis of B55α WT, V228A, I284A, S287A and D340A immunopurifications
Format: binding, human
Conditions: log2 ratio of interactor abundance, 4 replicates each, normalised to bait B55α; for log2_ratio_D340_WT: B55α D340A vs WT immunopurification; for log2_ratio I284_WT: B55α I284A vs WT immunopurification; for log2_ratio S287_WT: B55α S287A vs WT immunopurification; for log2_ratio V228_WT: B55α V228A vs WT immunopurification
Protocol: Standard cloning techniques were used throughout. Point mutations were introduced by whole plasmid polymerase chain reaction (PCR). All constructs were fully sequenced. Synthetic DNA was purchased from GeneArt, Life Technologies and cloned into pcDNA5/FRT/TO (Invitrogen) expression vector containing YFP, resulting in the indicated YFP fusion proteins. These constructs were transiently transfected into HeLa cells 24 hours before harvesting cells. Cells were lysed in lysis buffer [50 mM tris-HCl (pH 7.5), 50 mM NaCl, 1 mM EDTA, 1 mM […], and 0.1% NP-40]. Complexes were immunoprecipitated at 4°C in lysis buffer with green fluorescent protein (GFP)–Trap (ChromoTek) and washed in lysis buffer. Precipitated protein complexes were washed three times in lysis buffer, eluted in 2× SDS sample buffer, and subjected to Western blotting or MS as indicated.
Pull-downs were analyzed on a Q-Exactive Plus quadrupole or Fusion Orbitrap Lumos mass spectrometer (Thermo Fisher Scientific) equipped with Easy-nLC 1000 or […] (Thermo Fisher Scientific) and nanospray source (Thermo Fisher Scientific).
Static modifications included carbamidomethylcysteine, and variable modifications included oxidized methionine and STY phosphorylation. Searches were filtered using orthogonal measures including mass measurement accuracy (±3 parts per million), Xcorr for charges from +2 to +4, and dCn targeting a <1% false discovery rate at the peptide level. Quantification of LC-MS/MS spectra was performed using MassChroQ ([57]) and the iBAQ method ([58]). All data were analyzed using R 4.3.0. Missing values were imputed from a normal distribution. […] In each dataset, the abundance of the protein of interest was normalized to be equal across all samples. Statistical analyses were done using a two-tailed Student’s t test.

Molecule	log2_ratio_D340_WT	log2_ratio I284_WT	log2_ratio S287_WT	log2_ratio V228_WT
B1	2.13	-0.65	-1.90	-3.24
B2	-4.64	-3.46	0.85	-3.26
B3	2.17	3.49	2.56	
B4	-3.17	-2.61	-1.57	-1.50
B5	-0.23		0.94	
B6	-3.73	-7.04	-10.17	-9.33
